Measured values from patent publication US20230183753A1, “Methods of in Vitro Cell Delivery” (Intellia Therapeutics, Inc., priority 2020, published 2023).
Oligonucleotides are written 5' to 3', each unit as a sugar letter and its base; * is a phosphorothioate linkage, no mark a phosphodiester; rarer units and linkages stand in square brackets, end groups in braces. Plain capitals give the bases only. m = 2'-O-methyl; r = 2'-OH (RNA)

Experiments:
B2M, CD3, MHC II = experiment: Flow cytometry of antigen negative T cells (B2M, CD3, MHC II) after BC22n or Cas9 editing, Example 16A; assay type: cell-based, human
From the text: Cells were subsequently washed, processed on a Cytoflex instrument (Beckman Coulter) and analyzed using the FlowJo software package. T cells were gated based on size, shape, viability, and antigen expression.

[1] = system: B2M, TRAC, TRBC1/2, CIITA; experiment: NGS editing profile of T cells with BC22n or Cas9 mRNA, single or four guides, LNP titration, Example 16A; assay type: cell-based, human; conditions: LNP;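 note: activated T cells exposed to LNPs 72 h after activation, kept at 37 °C, harvested on day 10 post activation, editing measured by NGS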
[2] = multiple guide delivery (four guides simultaneously), locus of the guide assayed, editor BC22n, total RNA 8.6 ng
[3] = multiple guide delivery (four guides simultaneously), locus of the guide assayed, editor BC22n, total RNA 17.2 ng
[4] = multiple guide delivery (four guides simultaneously), locus of the guide assayed, editor BC22n, total RNA 34.4 ng
[5] = multiple guide delivery (four guides simultaneously), locus of the guide assayed, editor BC22n, total RNA 68.8 ng
[6] = multiple guide delivery (four guides simultaneously), locus of the guide assayed, editor BC22n, total RNA 137.5 ng
[7] = multiple guide delivery (four guides simultaneously), locus of the guide assayed, editor BC22n, total RNA 275.0 ng
[8] = multiple guide delivery (four guides simultaneously), locus of the guide assayed, editor BC22n, total RNA 550.0 ng
[9] = multiple guide delivery (four guides simultaneously), locus of the guide assayed, editor Cas9, total RNA 8.6 ng
[10] = multiple guide delivery (four guides simultaneously), locus of the guide assayed, editor Cas9, total RNA 17.2 ng
[11] = multiple guide delivery (four guides simultaneously), locus of the guide assayed, editor Cas9, total RNA 34.4 ng
[12] = multiple guide delivery (four guides simultaneously), locus of the guide assayed, editor Cas9, total RNA 68.8 ng
[13] = multiple guide delivery (four guides simultaneously), locus of the guide assayed, editor Cas9, total RNA 137.5 ng
[14] = multiple guide delivery (four guides simultaneously), locus of the guide assayed, editor Cas9, total RNA 275.0 ng
[15] = multiple guide delivery (four guides simultaneously), locus of the guide assayed, editor Cas9, total RNA 550.0 ng
[16] = single guide delivery, editor BC22n, total RNA 8.6 ng
[17] = single guide delivery, editor BC22n, total RNA 17.2 ng
[18] = single guide delivery, editor BC22n, total RNA 34.4 ng
[19] = single guide delivery, editor BC22n, total RNA 68.8 ng
[20] = single guide delivery, editor BC22n, total RNA 137.5 ng
[21] = single guide delivery, editor BC22n, total RNA 275.0 ng
[22] = single guide delivery, editor BC22n, total RNA 550.0 ng
[23] = single guide delivery, editor Cas9, total RNA 8.6 ng
[24] = single guide delivery, editor Cas9, total RNA 17.2 ng
[25] = single guide delivery, editor Cas9, total RNA 34.4 ng
[26] = single guide delivery, editor Cas9, total RNA 68.8 ng
[27] = single guide delivery, editor Cas9, total RNA 137.5 ng
[28] = single guide delivery, editor Cas9, total RNA 275.0 ng

B1: G016206: guide targeting TRBC1/2 (SEQ ID NO: 713) (nucleic acid)
guide: mC*mG*mC*rUrGrUrCrArArGrUrCrCrArGrUrUrCrUrArGrUrUrUrUrArGrAmGmCmUmAmGmAmAmAmUmAmGmCrArArGrUrUrArArArArUrArArGrGrCrUrArGrUrCrCrGrUrUrArUrCrAmAmCmUmUmGmAmAmAmAmAmGmUmGmGmCmAmCmCmGmAmGmUmCmGmGmUmGmCmU*mU*mU*mU
For B1, the “percent cells negative for antigen, CD3 neg, Mean %” value (“percent cells negative … Mean %” below) (B2M, CD3, MHC II; editor BC22n, total RNA 8.6 ng) was 32.6%, the “percent cells negative … Mean %” value (B2M, CD3, MHC II; editor BC22n, total RNA 17.2 ng) was 53.4% and the “percent cells negative … Mean %” value (B2M, CD3, MHC II; editor BC22n, total RNA 34.4 ng) was 71.9%. The “percent cells negative … Mean %” value (B2M, CD3, MHC II; editor BC22n, total RNA 68.8 ng) was 82.9%, the “percent cells negative … Mean %” value (B2M, CD3, MHC II; editor BC22n, total RNA 137.5 ng) was 90.4% and the “percent cells negative … Mean %” value (B2M, CD3, MHC II; editor BC22n, total RNA 275.0 ng) was 96.0%. The “percent cells negative … Mean %” value (B2M, CD3, MHC II; editor BC22n, total RNA 550.0 ng) was 97.9%, the “percent cells negative … Mean %” value (B2M, CD3, MHC II; editor Cas9, total RNA 8.6 ng) was 7.9% and the “percent cells negative … Mean %” value (B2M, CD3, MHC II; editor Cas9, total RNA 17.2 ng) was 16.1%. For the same molecule, the “percent cells negative … Mean %” value (B2M, CD3, MHC II; editor Cas9, total RNA 34.4 ng) was 27.0%, the “percent cells negative … Mean %” value (B2M, CD3, MHC II; editor Cas9, total RNA 68.8 ng) was 40.6% and the “percent cells negative … Mean %” value (B2M, CD3, MHC II; editor Cas9, total RNA 137.5 ng) was 59.4%. For the same molecule, the “percent cells negative … Mean %” value (B2M, CD3, MHC II; editor Cas9, total RNA 275.0 ng) was 77.3%, the “percent cells negative … Mean %” value (B2M, CD3, MHC II; editor Cas9, total RNA 550.0 ng) was 86.6% and the C-to-A/G % mean [1, 2] was 2.6%. For the same molecule, the C-to-T % mean [1, 2] was 11.6%, the Indel % mean [1, 2] was 2.8% and the C-to-A/G % mean [1, 3] was 3.6%. The C-to-T % mean [1, 3] was 23.4%, the Indel % mean [1, 3] was 2.6% and the C-to-A/G % mean [1, 4] was 3.7%. The C-to-T % mean [1, 4] was 38.5%, the Indel % mean [1, 4] was 2.9% and the C-to-A/G % mean [1, 5] was 2.3%. For the same molecule, the C-to-T % mean [1, 5] was 55.6%, the Indel % mean [1, 5] was 2.4% and the C-to-A/G % mean [1, 6] was 1.8%. For the same molecule, the C-to-T % mean [1, 6] was 72.4%, the Indel % mean [1, 6] was 1.7% and the C-to-A/G % mean [1, 7] was 1.9%. It also gave a C-to-T % mean [1, 7] of 85.1%, an Indel % mean [1, 7] of 1.7% and a C-to-A/G % mean [1, 8] of 2.2%. It also gave a C-to-T % mean [1, 8] of 89.8%, an Indel % mean [1, 8] of 0.9% and a C-to-A/G % mean [1, 9] of 0.7%. It also gave a C-to-T % mean [1, 9] of 0.2%, an Indel % mean [1, 9] of 2.3% and a C-to-A/G % mean [1, 10] of 0.7%. It also gave a C-to-T % mean [1, 10] of 0.3%, an Indel % mean [1, 10] of 4.2% and a C-to-A/G % mean [1, 11] of 0.5%. It also gave a C-to-T % mean [1, 11] of 0.1%, an Indel % mean [1, 11] of 6.6% and a C-to-A/G % mean [1, 12] of 0.5%. For the same molecule, the C-to-T % mean [1, 12] was 0.4%, the Indel % mean [1, 12] was 12.3% and the C-to-A/G % mean [1, 13] was 0.5%. It also gave a C-to-T % mean [1, 13] of 0.2%, an Indel % mean [1, 13] of 17.8% and a C-to-A/G % mean [1, 14] of 0.5%. For the same molecule, the C-to-T % mean [1, 14] was 0.1%, the Indel % mean [1, 14] was 33.0% and the C-to-A/G % mean [1, 15] was 0.3%. The C-to-T % mean [1, 15] was 0.3%, the Indel % mean [1, 15] was 43.3% and the C-to-A/G % mean [1, 16] was 6.1%. It also gave a C-to-T % mean [1, 16] of 23.7%, an Indel % mean [1, 16] of 6.1% and a C-to-A/G % mean [1, 17] of 6.8%. The C-to-T % mean [1, 17] was 42.4%, the Indel % mean [1, 17] was 6.8% and the C-to-A/G % mean [1, 18] was 5.7%. For the same molecule, the C-to-T % mean [1, 18] was 60.1%, the Indel % mean [1, 18] was 5.9% and the C-to-A/G % mean [1, 19] was 4.3%. For the same molecule, the C-to-T % mean [1, 19] was 73.2%, the Indel % mean [1, 19] was 4.7% and the C-to-A/G % mean [1, 20] was 3.6%. The C-to-T % mean [1, 20] was 81.7%, the Indel % mean [1, 20] was 3.7% and the C-to-A/G % mean [1, 21] was 2.3%. For the same molecule, the C-to-T % mean [1, 21] was 91.0%, the Indel % mean [1, 21] was 2.8% and the C-to-A/G % mean [1, 22] was 2.0%. The C-to-T % mean [1, 22] was 93.6%, the Indel % mean [1, 22] was 1.7% and the C-to-A/G % mean [1, 23] was 0.5%. The C-to-T % mean [1, 23] was 0.3%, the Indel % mean [1, 23] was 8.1% and the C-to-A/G % mean [1, 24] was 0.7%. It also gave a C-to-T % mean [1, 24] of 0.3%, an Indel % mean [1, 24] of 14.9% and a C-to-A/G % mean [1, 25] of 0.8%. For the same molecule, the C-to-T % mean [1, 25] was 0.2%, the Indel % mean [1, 25] was 24.1% and the C-to-A/G % mean [1, 26] was 0.4%. It also gave a C-to-T % mean [1, 26] of 0.2%, an Indel % mean [1, 26] of 35.9% and a C-to-A/G % mean [1, 27] of 0.5%. It also gave a C-to-T % mean [1, 27] of 0.2%, an Indel % mean [1, 27] of 48.6% and a C-to-A/G % mean [1, 28] of 0.4%. The C-to-T % mean [1, 28] was 0.1% and the Indel % mean [1, 28] was 63.8%.
